In article PMC7324161, “Synergy between SIRT1 and SIRT6 helps recognize DNA breaks and potentiates the DNA damage response and repair in humans and mice” (eLife, 2020):
Where no end group is shown, it is not given here. [ ]: non-standard residue; d: D form. The star is where a group is joined. Biotin = O=C1N[C@H]2[C@H](CS[C@H]2CCCCC(=O)*)N1; pS = N[C@@H](COP(=O)(O)O)C(=O)O

How the values were obtained:
GST-SIRT6 WT (human) = experiment: fluorescence polarization; settings: 20 nM FAM-DNA; Pull-down: 10 mM Tris-Cl pH 7.5, 100 mM NaCl, 0.01% NP40, 10% glycerol, 4 C overnight, 10 pmol DNA and 0.5 ug protein in 300 ul; FP buffer not in material
GST-SIRT6 K33R (human) = experiment: fluorescence polarization; settings: Pull-down: 10 mM Tris-Cl pH 7.5, 100 mM NaCl, 0.01% NP40, 10% glycerol, 4 C overnight, 10 pmol DNA and 0.5 ug protein in 300 ul; FP buffer not in material
GST-SIRT6 K33R = molecular target: T1, GST-SIRT6 K33R (human, UniProt Q8N6T7 1-355, K33R); experiment: pull-down; 1 μg biotinylated peptide with 1 μg GST-SIRT6 in 50 mM Tris-HCl, 200 mM NaCl, 0.05% NP40 overnight at 4°C; Streptavidin Sepharose beads 1 hr at 4°C; western blot; settings: both partners purified
T1 construct: SIRT6, human, lysine 33 to arginine, as GST fusion
T1 sequence (Q8N6T7 whole entry K33R, the tested form may be a part): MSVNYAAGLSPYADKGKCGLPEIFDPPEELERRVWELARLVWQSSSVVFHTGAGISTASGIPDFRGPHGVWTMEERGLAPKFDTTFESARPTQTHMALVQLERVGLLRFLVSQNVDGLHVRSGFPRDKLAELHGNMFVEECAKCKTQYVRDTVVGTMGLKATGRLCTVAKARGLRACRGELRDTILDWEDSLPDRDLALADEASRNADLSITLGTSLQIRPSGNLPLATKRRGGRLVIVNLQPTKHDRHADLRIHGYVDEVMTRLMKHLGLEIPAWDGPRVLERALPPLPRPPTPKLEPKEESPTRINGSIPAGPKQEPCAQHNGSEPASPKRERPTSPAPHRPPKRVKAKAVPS

**Q.** Which Kd (GST-SIRT6 WT (human)) does the source give for FAM-labeled DNA duplex here?
**A.** 166 nM

**Q.** And the Kd (GST-SIRT6 K33R (human))?
**A.** 105 nM

B1: biotin-labeled C-terminal γH2AX peptide (peptide)
peptide: Biotin-GKKATQA[pS]QEY
notes: C terminus of H2AX, printed as BGKKATQApSQEY; also called biotin-γH2AXp; source: synthetic peptide (GL Biochem, Shanghai)
**Q.** Does B1 bind (GST-SIRT6 K33R)?
**A.** binds
